In article PMC3834822, “Structure of an ‘open’ clamp type II topoisomerase-DNA complex provides a mechanism for DNA capture and transport”:

B1: 26mer E-site DNA (dsDNA)
DNA 1: AGGTCATGAATGACTATGCACGTAAA
DNA 2: TTTACGTGCATAGTCATTCATGACCT
B2: 34mer V-site DNA (dsDNA)
DNA 1: CAAAGGCGGTAATACGGTTATCCACAGAATCAGG
DNA 2: CCTGATTCTGTGGATAACCGTATTACCGCCTTTG

Assays:
ParE full-length;ParC55 = ParE full-length;ParC55 (Streptococcus pneumoniae;Streptococcus …, UniProt Q59961;P72525 1-647;1-488, |); test: X-ray crystallography (6.5 A); 10 mM MgCl2, 2 mM levofloxacin; cleavage complex; Crystallization: protein in 20 mM Tris-HCl pH 7.5, 100 mM NaCl, 1 mM beta-mercaptoethanol, 0.05% Na azide, 10 mM MgCl2, 2 mM levofloxacin; 4I3H reservoir 50 mM; conditions: protein: recombinant;recombinant; chain copies: 2;2; 26mer duplex; 4-bp stagger between cleavage sites
[1] = target: ParE-ParC55 fusion protein (topo IV) (Streptococcus pneumoniae 7785, UniProt Q59961 1-647+P72525:1-488, internal_change); test: X-ray crystallography (3.7 A); 10 mM MgCl2, 2 mM levofloxacin added; drug-free complex; G-gate DNA bent, uncleaved; second linear B-form duplex at C-gate helices (ParC R468, K464, N461, H196); no ATP; Crystallization: protein in 20 mM Tris-HCl pH 7.5, 100 mM NaCl, 1 mM beta-mercaptoethanol, 0.05% Na azide, 10 mM MgCl2, 2 mM levofloxacin; 4I3H reservoir 50 mM; conditions: protein: recombinant; tags: C-terminal His6; chain copies: 2; 34 bp duplex; 4-bp stagger between cleavage sites

Binder	binding result (ParE full-length;ParC55)	binding result [1]
B1	binds	–
B2	–	binds
